Results on 22 molecules are retold here after patent US5393869A, “Parathyroid hormone derivatives” (Takeda Chemical Industries, Ltd., priority 1990, dated 1995).

The target of the first assay is PTH receptor on MC3T3-EI cells (mouse cranial bone-derived osteoblast-like cell strain) (mouse) (UniProt P41593).
Experiment: not given
Details: not given
In turn, “(Lys^11)hPTH(1-34)NH2 (from UniProt P01270) (peptide)” registered a cAMP production in MC3T3-EI cells, relative activity to hPTH(1-34) (relative activity to hPTH(1-34)) of 1.1.

“(Arg^19,21)hPTH(1-34)NH2 (from UniProt P01270) (peptide)” came in with a cAMP production in MC3T3-EI cells, relative activity to hPTH(1-34) (relative activity to hPTH(1-34)) of 0.9. Still for that read-out and setting: the same measure for “(Arg^19,21,2-(1,3-dithiolan-2-yl)-Trp^23)hPTH(1-34)NH2 (from UniProt P01270) (peptide)”: 1.7; for “(3-(2-naphthyl)-Ala^11)hPTH(1-34)NH2 (from UniProt P01270) (peptide)”: 1.7. For “(Leu^8)hPTH(1-34)NH2 (from UniProt P01270) (peptide)”, the cAMP production in MC3T3-EI cells, relative activity to hPTH(1-34) (relative activity to hPTH(1-34)) came to 0.5. On the same count and under the same terms, with “(Phe^11)hPTH(1-34) (from UniProt P01270) (peptide)” the figure was 1.1. “(Aib^1)hPTH(1-34) (from UniProt P01270) (peptide)” registered a cAMP production in MC3T3-EI cells, relative activity to hPTH(1-34) (relative activity to hPTH(1-34)) of 1.7.

Regarding “(D-Ser^12)hPTH(1-34)NH2 (from UniProt P01270) (peptide)”, the cAMP production in MC3T3-EI cells, relative activity to hPTH(1-34) (relative activity to hPTH(1-34)) was 0.8. Still for that read-out and setting: the same measure for “(D-Leu^12)hPTH(1-34)NH2 (from UniProt P01270) (peptide)”: 0.5; for “(His^26)hPTH(1-34)NH2 (from UniProt P01270) (peptide)”: 0.9; for “(Leu^18)hPTH(1-34) (from UniProt P01270) (peptide)”: 0.4. Same read-out and setting: the same measure for “(3-(2-naphthyl)-D-Ala^12)hPTH(1-34)NH2 (from UniProt P01270) (peptide)”: 0.9; for “(Leu^8, Phe^11,Leu^18)hPTH(1-34)NH2 (from UniProt P01270) (peptide)”: 0.9; for “(Ser^11)hPTH(1-34)NH2 (from UniProt P01270) (peptide)”: 0.8. Still for that read-out and setting: the same measure for “(Phe^11)hPTH(1-34)NH2 (from UniProt P01270) (peptide)”: 1.3; for “(Gln^27)hPTH(1-34) (from UniProt P01270) (peptide)”: 2.5; for “(His^25)hPTH(1-34) (from UniProt P01270) (peptide)”: 1.

As to “(Leu^27)hPTH(1-34) (from UniProt P01270) (peptide)”, the cAMP production in MC3T3-EI cells, relative activity to hPTH(1-34) (relative activity to hPTH(1-34)) was determined as 1.2.

The target in a further assay is T1, PTH receptor (Mus musculus, UniProt P41593).
T1 construct: a mouse cranial bone-derived osteoblast-like cell strain, MC3T3-EI cells, cultivated on a 96-well multiplate; endogenous in cells; host or cells: MC3T3-E1 mouse osteoblast-like cells
T1 sequence (P41593 27-591): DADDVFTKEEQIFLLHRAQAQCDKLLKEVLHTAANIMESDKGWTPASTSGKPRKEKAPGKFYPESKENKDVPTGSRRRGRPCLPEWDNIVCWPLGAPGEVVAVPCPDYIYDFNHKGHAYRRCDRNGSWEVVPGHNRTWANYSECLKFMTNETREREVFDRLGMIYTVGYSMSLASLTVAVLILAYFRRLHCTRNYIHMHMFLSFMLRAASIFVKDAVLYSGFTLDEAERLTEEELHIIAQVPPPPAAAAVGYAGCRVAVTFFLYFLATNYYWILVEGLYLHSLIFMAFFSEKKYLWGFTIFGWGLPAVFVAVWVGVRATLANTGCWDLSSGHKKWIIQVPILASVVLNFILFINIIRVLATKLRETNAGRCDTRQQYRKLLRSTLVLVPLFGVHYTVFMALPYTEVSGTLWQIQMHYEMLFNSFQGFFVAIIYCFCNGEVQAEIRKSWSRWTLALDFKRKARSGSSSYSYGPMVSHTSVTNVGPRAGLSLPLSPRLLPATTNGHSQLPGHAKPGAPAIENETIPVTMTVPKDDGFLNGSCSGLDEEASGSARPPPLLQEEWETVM
The assay can be described thus: cAMP production by PTH (1-34) analogues in MC3T3-EI osteoblast-like cells. In kind it is cell-based. The following applies: cAMP production, 0.01-100 nM analogue, room temperature 30 minutes, hPTH(1-34) = 1.00. How it is done: The biological activity of the peptide analogues was evaluated by a modified version of the method reported by Shigeno et al. in The Journal of Biological Chemistry 263, 18369-18377 (1988). A culture solution (Hank's solution, containing 20 mM N-2-hydroxyethylpiperazine-N'-2-ethanesulfonic acid (HEPES), 0.1% bovine serum albumin and 0.5 mM isobutylmethyl-xanthine) containing 0.01, 0.1, 1, 10 or 100 nM analogue was added in an amount of 100 μto a mouse cranial bone-derived osteoblast-like cell strain, MC3T3-EI cells, cultivated on a 96-well multiplate (Nunclon, Nunc), followed by reaction at room temperature for 30 minutes. After addition of 100 μof 0.2N hydrochloric acid, the mixture was immersed in boiling water for 2.5 minutes, and cyclic adenosine monophosphate (cAMP) produced by a PTH receptor was extracted from the cells. The total cAMP in the culture solution and the cells was assayed using a commercial radioimmunoassay kit (cyclic AMP [^125 I] kit "Du Pont-Daiichi", Daiichi Kagaku Yakuhin).
With `CC[C@H](C)[C@H](NC(=O)[C@H](CCC(=O)O)NC(=O)[C@H](CO)NC(=O)[C@@H](NC(=O)[C@@H](N)CO)C(C)C)C(=O)N[C@@H](CCC(N)=O)C(=O)N[C@@H](CC(C)C)C(=O)N[C@@H](CCSC)C(=O)N[C@@H](Cc1c[nH]cn1)C(=O)N[C@@H](CC(N)=O)C(=O)N[C@@H](Cc1ccccc1)C(=O)NCC(=O)N[C@@H](CCCCN)C(=O)N[C@@H](Cc1c[nH]cn1)C(=O)N[C@@H](CC(C)C)C(=O)N[C@@H](CC(N)=O)C(=O)N[C@@H](CO)C(=O)N[C@@H](CCSC)C(=O)N[C@@H](CCC(=O)O)C(=O)N[C@@H](CCCNC(=N)N)C(=O)N[C@H](C(=O)N[C@@H](CCC(=O)O)C(=O)N[C@@H](Cc1c[nH]c2ccccc12)C(=O)N[C@@H](CC(C)C)C(=O)N[C@@H](CCCNC(=N)N)C(=O)N[C@@H](CCCCN)C(=O)N[C@@H](CCCCN)C(=O)N[C@@H](CC(C)C)C(=O)N[C@@H](CCC(N)=O)C(=O)N[C@@H](CC(=O)O)C(=O)N[C@H](C(=O)N[C@@H](Cc1c[nH]cn1)C(=O)N[C@@H](CC(N)=O)C(=O)N[C@@H](Cc1ccccc1)C(=O)O)C(C)C)C(C)C` [[Phe^11] hPTH (1-34), (Phe^11)hPTH(1-34)], the “Biological Activity (Represented by Relative Activity to hPTH(1-34))” value worked out at 1.1. Same read-out and setting: with `CC[C@H](C)[C@H](NC(=O)[C@H](CCC(=O)O)NC(=O)[C@H](CO)NC(=O)[C@@H](NC(=O)[C@@H](N)CO)C(C)C)C(=O)N[C@@H](CCC(N)=O)C(=O)N[C@@H](CC(C)C)C(=O)N[C@@H](CCSC)C(=O)N[C@@H](Cc1c[nH]cn1)C(=O)N[C@@H](CC(N)=O)C(=O)N[C@@H](CCCCN)C(=O)NCC(=O)N[C@@H](CCCCN)C(=O)N[C@@H](Cc1c[nH]cn1)C(=O)N[C@@H](CC(C)C)C(=O)N[C@@H](CC(N)=O)C(=O)N[C@@H](CO)C(=O)N[C@@H](CCSC)C(=O)N[C@@H](CCC(=O)O)C(=O)N[C@@H](CCCNC(=N)N)C(=O)N[C@H](C(=O)N[C@@H](CCC(=O)O)C(=O)N[C@@H](Cc1c[nH]c2ccccc12)C(=O)N[C@@H](CC(C)C)C(=O)N[C@@H](CCCNC(=N)N)C(=O)N[C@@H](CCCCN)C(=O)N[C@@H](CCCCN)C(=O)N[C@@H](CC(C)C)C(=O)N[C@@H](CCC(N)=O)C(=O)N[C@@H](CC(=O)O)C(=O)N[C@H](C(=O)N[C@@H](Cc1c[nH]cn1)C(=O)N[C@@H](CC(N)=O)C(=O)N[C@@H](Cc1ccccc1)C(N)=O)C(C)C)C(C)C` [[Lys^11] hPTH (1-34)NH2, (Lys^11)hPTH(1-34)NH2] the figure was 1.1. In the case of `CC[C@H](C)[C@H](NC(=O)[C@H](CCC(=O)O)NC(=O)[C@H](CO)NC(=O)[C@@H](NC(=O)[C@@H](N)CO)C(C)C)C(=O)N[C@@H](CCC(N)=O)C(=O)N[C@@H](CC(C)C)C(=O)N[C@@H](CCSC)C(=O)N[C@@H](Cc1c[nH]cn1)C(=O)N[C@@H](CC(N)=O)C(=O)N[C@@H](CC(C)C)C(=O)NCC(=O)N[C@@H](CCCCN)C(=O)N[C@@H](Cc1c[nH]cn1)C(=O)N[C@@H](CC(C)C)C(=O)N[C@@H](CC(N)=O)C(=O)N[C@@H](CO)C(=O)N[C@@H](CCSC)C(=O)N[C@@H](CCC(=O)O)C(=O)N[C@@H](CCCNC(=N)N)C(=O)N[C@H](C(=O)N[C@@H](CCC(=O)O)C(=O)N[C@@H](Cc1c[nH]c2ccccc12)C(=O)N[C@@H](CC(C)C)C(=O)N[C@@H](CCCNC(=N)N)C(=O)N[C@@H](CCCCN)C(=O)N[C@@H](CCC(N)=O)C(=O)N[C@@H](CC(C)C)C(=O)N[C@@H](CCC(N)=O)C(=O)N[C@@H](CC(=O)O)C(=O)N[C@H](C(=O)N[C@@H](Cc1c[nH]cn1)C(=O)N[C@@H](CC(N)=O)C(=O)N[C@@H](Cc1ccccc1)C(=O)O)C(C)C)C(C)C` [[Gln^27] hPTH (1-34), (Gln^27)hPTH(1-34)], the “Biological Activity (Represented by Relative Activity to hPTH(1-34))” value is given as 2.5.

With `CC[C@H](C)[C@H](NC(=O)[C@H](CCC(=O)O)NC(=O)[C@H](CO)NC(=O)[C@@H](NC(=O)[C@@H](N)CO)C(C)C)C(=O)N[C@@H](CCC(N)=O)C(=O)N[C@@H](CC(C)C)C(=O)N[C@@H](CC(C)C)C(=O)N[C@@H](Cc1c[nH]cn1)C(=O)N[C@@H](CC(N)=O)C(=O)N[C@@H](CC(C)C)C(=O)NCC(=O)N[C@@H](CCCCN)C(=O)N[C@@H](Cc1c[nH]cn1)C(=O)N[C@@H](CC(C)C)C(=O)N[C@@H](CC(N)=O)C(=O)N[C@@H](CO)C(=O)N[C@@H](CCSC)C(=O)N[C@@H](CCC(=O)O)C(=O)N[C@@H](CCCNC(=N)N)C(=O)N[C@H](C(=O)N[C@@H](CCC(=O)O)C(=O)N[C@@H](Cc1c[nH]c2ccccc12)C(=O)N[C@@H](CC(C)C)C(=O)N[C@@H](CCCNC(=N)N)C(=O)N[C@@H](CCCCN)C(=O)N[C@@H](CCCCN)C(=O)N[C@@H](CC(C)C)C(=O)N[C@@H](CCC(N)=O)C(=O)N[C@@H](CC(=O)O)C(=O)N[C@H](C(=O)N[C@@H](Cc1c[nH]cn1)C(=O)N[C@@H](CC(N)=O)C(=O)N[C@@H](Cc1ccccc1)C(N)=O)C(C)C)C(C)C` [[Leu^8] hPTH (1-34)NH2, (Leu^8)hPTH(1-34)NH2], the “Biological Activity (Represented by Relative Activity to hPTH(1-34))” value was determined as 0.5.
